The results in this text go back to the supplement of paper PMC11246515.

± gives the standard deviation of the averaged measurements.

A short description of the data set: total protein half-life in vivo (active degradation + dilution); higher = more stable protein.
[1] abbreviates: E. coli NCM3722 delta-hslV, growth: N-lim chemostat, doubling time 6 h.
[2] abbreviates: E. coli NCM3722 delta-smpB, growth: N-lim chemostat, doubling time 6 h.
[3] abbreviates: wild type E. coli NCM3722, growth: C-lim chemostat, doubling time 3 h.
[4] abbreviates: wild type E. coli NCM3722, growth: C-lim chemostat, doubling time 6 h.
Where [5] appears, read: wild type E. coli NCM3722, growth: C-lim chemostat, doubling time 12 h.
Setting [6] is: wild type E. coli NCM3722, growth: P-lim chemostat, doubling time 6 h.
Where [7] appears, read: wild type E. coli NCM3722, growth: P-lim chemostat, doubling time 12 h.
The mark [8] stands for this setting: E. coli NCM3722 delta-clpP delta-lon delta-hslV, growth: N-lim chemostat, doubling time 6 h.
Setting [9] is: E. coli NCM3722 delta-clpP, growth: N-lim chemostat, doubling time 6 h.
Where [10] appears, read: E. coli NCM3722 delta-lon, growth: N-lim chemostat, doubling time 6 h.
[11] abbreviates: wild type E. coli NCM3722, growth: N-lim chemostat, doubling time 6 h.
The mark [12] stands for this setting: wild type E. coli NCM3722, growth: N-lim chemostat, doubling time 12 h.

Regarding “MGMIGYFAEIDSEKINQLLESTEKPLMDNIHDTLSGLRRLDIDKRWDFLHFGLTGTSAFDPAKNDPLSRAVLGEHSLEDGIDGFLGLTWNQELAATIDRLESLDRNELRKQFSIKRLNEMEIYPGVTFSEELEGQLFASIMLDMEKLISAYRRMLRQGNHALTVIVG”, the “total protein half-life in vivo” value runs as follows: under setting [1], 2.19 h; under setting [2], 1.91 ± 0.022 h; under setting [3], 1.89 h; under setting [4], 4.04 h; under setting [5], 4.57 h; under setting [6], 3.44 ± 0.17 h. For the same sequence, the “total protein half-life in vivo” value under setting [7] turned out to be 6.19 ± 0.12 h.

As for “MQYNPLGKTDLRVSRLCLGCMTFGEPDRGNHAWTLPEESSRPIIKRALEGGINFFDTANSYSDGSSEEIVGRALRDFARREDVVVATKVFHRVGDLPEGLSRAQILRSIDDSLRRLGMDYVDILQIHRWDYNTPIEETLEALNDVVKAGKARYIGASSMHASQFAQALELQKQHGWAQFVSMQDHYNLIYREEEREMLPLCYQEGVAVIPWSPLARGRLTRPWGETTARLVSDEVGKNLYKESDENDAQIAERLTGVSEELGATRAQVALAWLLSKPGIAAPIIGTSREEQLDELLNAVDITLKPEQIAELETPYKPHPVVGFK”, the “total protein half-life in vivo” value turned out to be 4.533 ± 0.045 h under setting [8]; 4.47 ± 0.65 h under setting [9]; 4.55 ± 0.91 h under setting [1]; 5 ± 0.2 h under setting [10]; 3.79 ± 0.081 h under setting [2]; 2.81 ± 0.13 h under setting [3]. For the same sequence, the “total protein half-life in vivo” value under setting [4] worked out at 5.04 ± 0.076 h; the “total protein half-life in vivo” value under setting [5] was 9.04 ± 0.38 h; the “total protein half-life in vivo” value under setting [11] turned out to be 4.21 ± 0.2 h; the “total protein half-life in vivo” value under setting [12] stood at 6.51 ± 0.4 h; the “total protein half-life in vivo” value under setting [6] turned out to be 4.28 ± 0.23 h; the “total protein half-life in vivo” value under setting [7] came out at 8.83 ± 0.12 h.

“MFAVSSRRVLPGFTLSLGTSLLFVCLILLLPLSALVMQLAQMSWAQYWEVITNPQVVAAYKVTLLSAFVASIFNGVFGLLMAWILTRYRFPGRTLLDALMDLPFALPTAVAGLTLASLFSVNGFYGEWLAKFDIKVTYTWLGIAVAMAFTSIPFVVRTVQPVLEELGPEYEEAAETLGATRWQSFCKVVLPELSPALVAGVALSFTRSLGEFGAVIFIAGNIAWKTEVTSLMIFVRLQEFDYPAASAIASVILAASLLLLFSINTLQSRFGRRVVGH”: the “total protein half-life in vivo” value runs as follows: under setting [8], 7.77 h; under setting [9], 6.57 h; under setting [1], 4.7 h; under setting [10], 4.58 h; under setting [2], 2.4 h; under setting [3], 3.13 ± 0.25 h. For the same sequence, the “total protein half-life in vivo” value was 4.2551 ± 0.0035 h under setting [4], 7.05 h under setting [5], 4.83 ± 0.59 h under setting [11] and 10.2 ± 1.2 h under setting [7].

With “MQKREPVIIAPDYTDDELYEWMRQKINAAQDLKWANEARAKQAENLSALEQDITNLEKAAALSIARMITYPR”, the “total protein half-life in vivo” value under setting [3] came out at 3.16 h.

Consider “MTAPLTLLIVEDETPLAEMHAEYIRHIPGFSQILLAGNLAQARMMIERFKPGLILLDNYLPDGRGINLLHELVQAHYPGDVVFTTAASDMETVSEAVRCGVFDYLIKPIAYERLGQTLTRFRQRKHMLESIDSASQKQIDEMFNAYARGEPKDELPTGIDPLTLNAVRKLFKEPGVQHTAETVAQALTISRTTARRYLEYCASRHLIIAEIVHGKVGRPQRIYHSG [P0AEF4]”, for which the “total protein half-life in vivo” value amounted to 4.85 h under setting [8]; 3.389 ± 0.03 h under setting [9]; 3.43 h under setting [1]; 3.22 h under setting [2]; 2.24 h under setting [3]; 5.33 h under setting [4]. Further, the “total protein half-life in vivo” value amounted to 8.21 h under setting [5]; 3 ± 0.62 h under setting [11]; 5.34 ± 0.18 h under setting [12]; 3.33 ± 0.5 h under setting [6]; 7.63 ± 0.19 h under setting [7].

As to “MKLRLSALALGTTLLVGCASSGTDQQGRSDPLEGFNRTMYNFNFNVLDPYIVRPVAVAWRDYVPQPARNGLSNFTGNLEEPAVMVNYFLQGDPYQGMVHFTRFFLNTILGMGGFIDVAGMANPKLQRTEPHRFGSTLGHYGVGYGPYVQLPFYGSFTLRDDGGDMADGFYPVLSWLTWPMSVGKWTLEGIETRAQLLDSDGLLRQSSDPYIMVREAYFQRHDFIANGGELKPQENPNAQAIQDDLKDIDSE”, the “total protein half-life in vivo” value runs as follows: under setting [8], 6.54 ± 0.28 h; under setting [9], 6.05 ± 0.062 h; under setting [2], 5.99 ± 0.31 h; under setting [3], 3.153 ± 0.018 h; under setting [4], 6.61 ± 1.3 h; under setting [5], 13.9 ± 0.49 h. Besides, the “total protein half-life in vivo” value stood at 6.37 ± 0.039 h under setting [11], 12.59 ± 0.014 h under setting [12], 5.98 ± 0.64 h under setting [6] and 13.4 ± 0.97 h under setting [7].

Take “MDSFPAIEIDKVKAWDFRLANINTSECLNVAYGVDANYLDGVGVSITSIVLNNRHINLDFYIIADVYNDGFFQKIAKLAEQNQLRITLYRINTDKLQCLPCTQVWSRAMYFRLFAFQLLGLTLDRLLYLDADVVCKGDISQLLHLGLNGAVAAVVKDVEPMQEKAVSRLSDPELLGQYFNSGVVYLDLKKWADAKLTEKALSILMSKDNVYKYPDQDVMNVLLKGMTLFLPREYNTIYTIKSELKDKTHQNYKKLITESTLLIHYTGATKPWHKWAIYPSVKYYKIALENSPWKDDSPRDAKSIIEFKKRYKHLLVQHHYISGIIAGVCYLCRKYYRK”: the “total protein half-life in vivo” value worked out at 5.91 ± 0.13 h under setting [8]; 5.65 ± 0.22 h under setting [9]; 5.85 ± 1.1 h under setting [1]; 4.71 ± 0.095 h under setting [10]; 5.17 ± 0.11 h under setting [2]; 2.93 ± 0.14 h under setting [3]. The “total protein half-life in vivo” value reads like this: under setting [4], 5.19 ± 0.48 h; under setting [5], 9.31 ± 1.8 h; under setting [11], 6.04 ± 1.2 h; under setting [12], 10.3 ± 2.3 h; under setting [6], 5.29 ± 0.38 h; under setting [7], 9.86 ± 0.11 h.

Consider “MSSFDYLKTAIKQQGCTLQQVADASGMTKGYLSQLLNAKIKSPSAQKLEALHRFLGLEFPRQKKTIGVVFGKFYPLHTGHIYLIQRACSQVDELHIIMGFDDTRDRALFEDSAMSQQPTVPDRLRWLLQTFKYQKNIRIHAFNEEGMEPYPHGWDVWSNGIKKFMAEKGIQPDLIYTSEEADAPQYMEHLGIETVLVDPKRTFMSISGAQIRENPFRYWEYIPTEVKPFFVRTVAILGGESSGKSTLVNKLANIFNTTSAWEYGRDYVFSHLGGDEIALQYSDYDKIALGHAQYIDFAVKYANKVAFIDTDFVTTQAFCKKYEGREHPFVQALIDEYRFDLVILLENNTPWVADGLRSLGSSVDRKEFQNLLVEMLEENNIEFVRVEEEDYDSRFLRCVELVREMMGEQR”, for which the “total protein half-life in vivo” value under setting [8] is 5.91 ± 0.15 h; the “total protein half-life in vivo” value under setting [1] came to 5.88 ± 0.4 h; the “total protein half-life in vivo” value under setting [10] amounted to 6.4 ± 0.35 h; the “total protein half-life in vivo” value under setting [2] worked out at 5.71 ± 0.23 h; the “total protein half-life in vivo” value under setting [3] was determined as 2.975 ± 0.013 h; the “total protein half-life in vivo” value under setting [4] was found to be 5.76 ± 0.61 h. The “total protein half-life in vivo” value came out at 10.5 ± 1.5 h under setting [5]; 5.3 ± 0.24 h under setting [11]; 10.6 ± 1.9 h under setting [12]; 5.97 ± 0.31 h under setting [6]; 10.8 ± 0.14 h under setting [7].

Take “MNTISSLETTDLPAAYHIEQRAHAFPWSEKTFASNQGERYLNFQLTQNGKMAAFAITQVVLDEATLFNIAVDPDYQRQGLGRALLEHLIDELEKRGVATLWLEVRASNAAAIALYESLGFNEATIRRNYYPTTDGREDAIIMALPISM [P0A944]”: the “total protein half-life in vivo” value under setting [8] came to 5.64 h; the “total protein half-life in vivo” value under setting [9] came to 4.51 h; the “total protein half-life in vivo” value under setting [10] stood at 4.5 ± 0.79 h; the “total protein half-life in vivo” value under setting [2] turned out to be 3.85 h; the “total protein half-life in vivo” value under setting [3] was over 4 h; the “total protein half-life in vivo” value under setting [5] is 15.9 h. Besides, the “total protein half-life in vivo” value reads like this: under setting [11], 3.845 ± 0.034 h; under setting [12], 6.18 h; under setting [6], 4.53 h; under setting [7], 8.18 h.
